Tested on: internally quenched peptide probe (MCA)-Gly-Ser-Ala-Ile-Ala-Leu-Tyr-Gly-Gly-Ser-Lys (DNP)-D-Arg with CM AIALY (SEQ ID NO: 5)

Sequence of human recombinant MMP9 (R&D Systems, catalog No: 911-MP) (chain, as listed by the source): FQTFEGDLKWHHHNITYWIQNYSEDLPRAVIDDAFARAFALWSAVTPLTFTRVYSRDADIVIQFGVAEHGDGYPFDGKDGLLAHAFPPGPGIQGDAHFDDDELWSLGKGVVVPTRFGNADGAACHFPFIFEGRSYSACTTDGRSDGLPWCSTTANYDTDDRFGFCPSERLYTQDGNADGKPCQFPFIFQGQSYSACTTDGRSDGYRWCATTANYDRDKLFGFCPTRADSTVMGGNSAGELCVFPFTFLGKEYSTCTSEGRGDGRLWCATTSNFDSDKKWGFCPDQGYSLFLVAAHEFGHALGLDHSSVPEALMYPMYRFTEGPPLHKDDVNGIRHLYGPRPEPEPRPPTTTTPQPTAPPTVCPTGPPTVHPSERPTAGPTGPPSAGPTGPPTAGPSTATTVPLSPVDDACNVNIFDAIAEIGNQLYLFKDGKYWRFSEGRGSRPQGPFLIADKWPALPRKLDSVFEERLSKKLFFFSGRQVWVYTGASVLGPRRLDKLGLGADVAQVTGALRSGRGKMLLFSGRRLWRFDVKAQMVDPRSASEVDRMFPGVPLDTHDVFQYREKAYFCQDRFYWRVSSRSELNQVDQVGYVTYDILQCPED

## human recombinant MMP9 (R&D Systems, catalog No: 911-MP)
  Probe Cleavage (kcat/KM): 41000 M⁻¹ s⁻¹
  Probe Cleavage (pM/s): 87.7 pM/s

— US20260049148
